Consider 35 molecules from patent US12551573B2, “Compositions and methods for the targeting of PCSK9” (Scribe Therapeutics Inc., priority 2022, dated 2026).

The labels stand for the following.
B1: DOMAIN_32327 (protein, listed as Homo sapiens)
chain: NMSQASVSFQDVTVEFTREEWQHLGPVERTLYRDVMLENYSHLISVGYCITKPKVISKLEKGEEPWSLEDEFLNQRYPGY
B2: DOMAIN_31935 (protein, listed as Rhinolophus ferrumequinum)
chain: EKIEDMAVSLIREEWLLDPSQKDLRRDNRTENYRNMFSLGGETRSENRELASKQVASAGVQPHGETAARCNGDVTGALEHGEARDLLGSRVERQRAN
B3: DOMAIN_32223 (protein, listed as Homo sapiens)
chain: GPQGARRQAFLAFGDVTVDFTQKEWRLLSPAQRALYREVTLENYSHLVSLGILHSKPELIRRLEQGEVPWGEERRRRPGP
B4: DOMAIN_6472 (protein, listed as Alligator sinensis)
chain: VVLLEAFEDVAVYFTQKEWALLDDGDKALYRDQMLRNYQALISLGYRGPTPALINRIQRGEMELWVCDKDYGEKSSLEGLF
B5: DOMAIN_7109 (protein)
chain: MRVTFEDIAVSFSQEEWEYLDEEQKELYREVMKENYQTLISLGAGSLTFTPEIISHIERGEEPYSRDEPGSGEREPGKSRC
modifications: Microcaecilia unicolor
B6: DOMAIN_4120 (protein, listed as Macaca mulatta)
chain: MAFEDVAVYFSQEEWGLLDTAQRALYRHVMLENFTLVTSLGLSTSRPHVVIQLERGEEPWVPSGKDMTLARNTYRRLNAGS
B7: DOMAIN_5005 (protein, listed as Callithrix sp.)
chain: MAFEDVAVYFSEEEWGLLDTAQRALYRHVMLENFTLVTSLGLSTSRPLVVIQLERGEDPWVPSVKDMTLARNAYGRRTTGS
B8: DOMAIN_2563 (protein, listed as Pongo sp.)
chain: MGPQGARRQAFLAFGDVTVDFTQKEWRLLSPTQRALYREVTLENYSHLVSLGILHSKPELIRRLEQGEAPWGEERRRRPGP
B9: DOMAIN_3832 (protein, listed as Macaca mulatta)
chain: TMSCSRAGGITGCIKYSTASVAFRDVAVDFTQEEWRLLSPAQRTLHREVMLETYNHLVSLEIPSSKPKLIAQLERGEEPWR
B10: DOMAIN_5440 (protein, listed as Aotus trivirgatus)
chain: MAVDLLPAQESMTFRDVAVFFSQDEWLHLDSAQRALYREVMLENYSTLVSLGIPFSMPKVIHQLQQGQDPCMVEGEVPSDI
B11: DOMAIN_6952 (protein, listed as Alligator mississippiensis)
chain: DQLQEAFEDVALYFTQNEWELLGDGDKVLYRDQMLRNYQALVSLGYQGPAPDLISRIQRQEVELWVCEEENPGESVWTEGL
B12: DOMAIN_6356 (protein, listed as Terrapene carolina)
chain: MSVTFEDVAMYFSPAEWVLLGEEQKQLYRHVMWENYQTLVSLGIQISKPVVISSIERGEELWAQSPTEDEDEDILSGTSPG
B13: DOMAIN_6398 (protein, listed as Gopherus agassizii)
chain: MPVTFEEVAVYFTEGQGALLDPAQRALYRDVMQEIYEMVISLGFLLPKPDVIIQLERGEEPWVPDLQGSAEREMSRGTCAG
B14: DOMAIN_7098 (protein)
chain: QVPVIFEDVAVYFWEEEWEMLEEWQKELYKETMKENYKTLVSLGMELPTEKPDLIVRIEREENPCVKAQWDSRDKTRWRNS
modifications: Microcaecilia unicolor
B15: DOMAIN_2629 (protein, listed as Pongo sp.)
chain: MFPPARGKELLSFEDVAMYFTREEWGHLSWGQKDLYRDVMLENYRNMVLLGFQFPKPEVICQLENWDEQWILDLPRAGNRK
B16: DOMAIN_6938 (protein, listed as Alligator mississippiensis)
chain: SKLPEAFEDVAVYFTRKEWELLEAGDKGLYQDQMLRNYQALVSLGLQGPAPDLICRMQLGEMELWVCDDEEAGESSLSEDF
B17: DOMAIN_3328 (protein, listed as Hylobates sp.)
chain: MGLVSFKDVAVDFTQEEWQQLDPSQRTLYRDVMLENYSHLVSMGYPVSKPDVISKLEQGEEPWIIKGDISNWIYPDEYQAD
B18: DOMAIN_2754 (protein, listed as Hylobates sp.)
chain: MAGEAEAQLDPSLQGLVMFEDVTVYFSREEWGLLNVTQKGLYRDVMLENFALVSSLGLAPSRSPVFTQLEDDEQSWVPNWV
B19: DOMAIN_5125 (protein, listed as Callithrix sp.)
chain: MPANEDTPQPGGHGSACEVSVSFEDVTVDFSREEWQQLDSTQRRLYQDVMLENYSHLLSVGFEVPKPEVIFKLEQGEGPWT
B20: DOMAIN_4774 (protein, listed as Callithrix sp.)
chain: HGSSYEGSVSFRDVAINFSREEWRHLDLSQRNLYWDVMLETYSHLLSVGYQFPKPEVVMLEQGNEPWALQGERPRHSCPGE
B21: DOMAIN_5188 (protein, listed as Aotus trivirgatus)
chain: MITAQGPVSFRDVTVGFTQEEWQHLDPAQRTLYRDVMIENYSHLVSVGYCIPKPEVILKLEKGEEPWISEEKFPSQSHLEL
B22: DOMAIN_6737 (protein)
chain: QMLVTFEDIAVSFSKEEWEYLDEGQKELYREVMKENYQTLISLGTGFPTVIPEIISHIEQGDEPGSEERENGKSSCSGESG
modifications: Microcaecilia unicolor
B23: DOMAIN_5791 (protein, listed as Homo sapiens)
chain: EPGAVSFADVAVYFCREEWGCLRPAQRALYRDVMRETYGHLSALGIGGNKPALISWVEEEAELWGPAAQDPEVAKCQTQTD
B24: DOMAIN_5946 (protein, listed as Homo sapiens)
chain: RQAFLAFGDVTVDFTQKEWRLLSPAQRALYREVTLENYSHLVSLGILHSKPELIRRLEQGEVPWGEERRRRPGPCAGIYAE
B25: DOMAIN_3463 (protein, listed as Hylobates sp.)
chain: MMTAVSLTTRPQESVAFEDVAVYFTAKEWDIMVPAERALYRDVMLENYEAVAFVVPPTSKPALVSHLEQGKESCFTRPQGV
B26: DOMAIN_737 (protein, listed as Pan paniscus)
chain: MAFEDVAVYFSQEEWGLLDTAQRALYRRVMLDNFALVASLGLSTSRPRVVIQLERGEEPWVPSGTDTTLSRTTYRRRNPGS
B27: DOMAIN_5006 (protein, listed as Callithrix sp.)
chain: MAFEDVAVYFSQEEWGLLDTAQRALYRRVMLDNFALVASLGLSTSRPRVVIQLERGEEPWVPSETDMTMSRNTHRRRNPGS
B28: DOMAIN_4121 (protein, listed as Macaca mulatta)
chain: MAFEDVAVYFSQEEWGLLDTAQRALYRRVMLDNFALVASLGLSTSRPRVVIQLERGEEPWVPSGTDTILSRNTYRRRNPGS
B29: DOMAIN_6410 (protein, listed as Podarcis muralis)
chain: GLVSFDEVSVHFTNEEWALLDPGQRALYEEVMEEIREMMTSVGDVSEFLTEGEQSEPSREGAEEQKEQRKQRVQVGTYRKE
B30: DOMAIN_6697 (protein, listed as Podarcis muralis)
chain: GSVSFDEVSVRFSNEEWALLDPGQRALYEEVMEEIREMMTSVGDVSEFLTEGEQSEPSREGAEEQKEQRKQRVQVGTYRKE
B31: DOMAIN_6433 (protein, listed as Podarcis muralis)
chain: GSVSFDEVSVRFSNEEWALLDPGQRALYEEVMEEIREMMTSVGDVSEFLTEGEQSELSREGAEEQKEQRKQRVQVGTYRNE
B32: DOMAIN_6738 (protein)
chain: FQTLLAFEDVAVFFSEEEWELLDELQKEVYKNTMRENYETLLSLGLTNMKPEIIAKIDAGEAPSVQNASYLEKRGKKSAAG
modifications: Microcaecilia unicolor
B33: DOMAIN_4516 (protein, listed as Callithrix sp.)
chain: MAAIPLKAQCQETVTFEDVAVHFTKTEWTGLSPAQRALYRSVMLENYGNLTAMGYLVPKPALISLLEGGDMAWGLEAQDDP
B34: DOMAIN_2499 (protein, listed as Pongo sp.)
chain: MNSEVIVDPIQGQVNFEDVFVYFSQEEWVLLDEAQRLLYRDVMLENFALMASLGHTSFMSHIGASLVMGSEPWVPDWVDMI
B35: DOMAIN_7183 (protein)
chain: VQVPVTFEDVAVYFSEDEWGMLAGWQKELYKETMKENYETLTLLGCLSEKPSLISKIEREEDPCVRDQQDPRDRRKLRSSW
modifications: Microcaecilia unicolor

One assay concerns HBEGF locus. It is filed as cell-based, human. To be noted: fold change in abundance of each repressor domain in the dXR library before vs after diphtheria toxin selection; dXR repression of the HBEGF gene; domains meeting p-value <0.01 and log2(fold change) >2.
In the case of B1, the “Log2 (fold change)” value came to 3.1024.
Same read-out and setting: under B2 stands 3.5544; under B3, 2.8836.

The assay is the same for the next values; noted with them: high-throughput screen of dXR repression of the HBEGF gene; change in abundance of each domain in the library before and after diphtheria toxin selection.
With B4, the “Log2 (fold change)” value is 2.9259.
On the same count and under the same terms, in the case of B5 it was 2.9932.
For the molecule B6, the “Log2 (fold change)” value came out at 3.3237.
As to B7, the “Log2 (fold change)” value was found to be 2.8406.
Same read-out and setting: under B8 stands 2.8105.
On the same count and under the same terms, in the case of B9 it was 2.7334; in that of B10, 2.7871; in that of B11, 2.3403.
Same read-out and setting: in the case of B12 it was 2.9197; in that of B13, 2.8238.
Consider B14, for which the “Log2 (fold change)” value is recorded as 2.7074.
B15: the “Log2 (fold change)” value is 3.092.
As to B16, the “Log2 (fold change)” value is 2.6093.
With B17, the “Log2 (fold change)” value is on record as 2.3718.
For the molecule B18, the “Log2 (fold change)” value was determined as 3.7601.
The same measure, in the same setting: in the case of B19 it was 2.911; in that of B20, 2.8894; in that of B21, 2.1842.
For B22, the “Log2 (fold change)” value is given as 2.4861.
On to B23, for which the “Log2 (fold change)” value came out at 2.6823.
On the same count and under the same terms, in the case of B24 it was 3.2998.
The same measure, in the same setting: in the case of B25 it was 3.5462; in that of B26, 4.544; in that of B27, 3.8614.
The same measure, in the same setting: in the case of B28 it was 3.3195; in that of B29, 2.7633.
Regarding B30, the “Log2 (fold change)” value is 2.6712.
On the same count and under the same terms, in the case of B31 it was 3.0313; in that of B32, 2.9275; in that of B33, 2.7603.
Still for that read-out and setting: in the case of B34 it was 3.114; in that of B35, 2.4918.
